The assay deals with RadD adhesin of Fusobacterium nucleatum subsp. nucleatum ATCC 23726 (Fusobacterium nucleatum subsp. nucleatum ATCC 23726 (endogenous on the bacteria)). The experiment in a line: flow cytometry on cells. In general terms: A flow cytometer gives signals particle by particle.

Regarding “NKp46 fusion protein (NKp46 Ig) (human) (from UniProt O76036 22-258) (Fc fusion)”, the fold increase in binding to ATCC 23726 ∆fad-I came out at 100 fold.

B1: Ncr-1 fusion protein (Ncr-1 Ig) (mouse) (Fc fusion)
chain: QRINTEKETLPKPIIWAKPSIMVTNGNSVNIWCQGAQSASEYQLYFEGSFFALERPKPSRSMNKVRFFISQMTSHTAGIYTCFYQSGELWSKSSNPLKLVVTGLYDTPNLWVYPRPEVTLGENVTFFCQLKTATSKFFLLKERGSNHIQNKYGNIQAEFPMGPVTRAHRGTYRCFGSYNDYAWSFPSEPVTLLITGGVENSSLAPTDPTSSLDYWEFDLSTNESGLQKDSAFWDHTTQN
For B1, the fold increase in binding to ATCC 23726 ∆fad-I is 100 fold.

For the origin of these results see article PMC13134850.
